The values below come from the RNAGym collection of RNA variant scans (doi:10.7554/elife.80360).

B1: Twister Ribozyme (parent)
chain: AACACUGCCAAUGCCGGUCCCAAGCCCGGAUAAAAGUGGAGGGGGCGG

The series covers variants of B1. Kind of series: self-cleavage, relative activity (ratio to wild type); higher = more cleavage; co-transcriptional.
As for AACACUCCCAAUGCCGGUCCCAACCCCGGAUAAAAGUGGAGGGGGCGG [G7C G24C], the self-cleavage worked out at 0.059.

AACACUCCCAAUGCCGGUCCCAAGCCCGUAUAAAAGUGGAGGGGGCGG [G7C G29U]: the self-cleavage worked out at 0.0704.

In the case of AACACUCCCAAUGCCGGUCCCAAGCCCGGAUAAAAAUGGAGGGGGCGG [G7C G36A], the self-cleavage amounted to 0.0583.

On to AACACUCCCAAUGCCGGUCCCAAGCCCGGAUAAAAUUGGAGGGGGCGG [G7C G36U], for which the self-cleavage was 0.0725.

On to AACACUUCCAAUGCCGGUCCCAAGCCCGGAUAAAAGCGGAGGGGGCGG [G7U U37C], for which the self-cleavage is 0.0889.

For the variant AACACUUCCAAUGCCGGUCCCAAGCCCGGAUAAAAGGGGAGGGGGCGG [G7U U37G], the self-cleavage turned out to be 0.0777.

For the variant AACACUGACAAUGCCGGUCCCAAGCCCGGAUAAGAGUGGAGGGGGCGG [C8A A34G], the self-cleavage worked out at 0.701.

For the variant AACACUGACAAUGCCGGUCCCAAGCCCGGAUAAUAGUGGAGGGGGCGG [C8A A34U], the self-cleavage was found to be 0.675.

With AACACUUCCAAUGCCGGUCCCAAGCCAGGAUAAAAGUGGAGGGGGCGG [G7U C27A], the self-cleavage was 0.0728.

Turning to AACACUUCCAAUGCCGGUCCCAAGCCUGGAUAAAAGUGGAGGGGGCGG [G7U C27U], the self-cleavage was 0.079.

Take AACACUCCCAAUGCCGGUCCCAAGCCCGGACAAAAGUGGAGGGGGCGG [G7C U31C]: the self-cleavage stood at 0.0704.

As for AACACUCCCAAUGCCGGUCCCAAGCCCGGAAAAAAGUGGAGGGGGCGG [G7C U31A], the self-cleavage came out at 0.0718.

Turning to AACACUCCCAAUGCCGGUCCCAAGCCCGGAGAAAAGUGGAGGGGGCGG [G7C U31G], the self-cleavage is 0.0544.

For the variant AACACUUCCAAUGCCGGUCCCAAGCCCGGAUAAAAGUGGAGGGGGUGG [G7U C46U], the self-cleavage was 0.103.

For AACACUUCCAAUGCCGGUCCCAAGCCCGGAUAAAAGUGGAGGGGGGGG [G7U C46G], the self-cleavage turned out to be 0.047.

In the case of AACACUGACUAUGCCGGUCCCAAGCCCGGAUAAAAGUGGAGGGGGCGG [C8A A10U], the self-cleavage came out at 0.239.

AACACUGACAAUGCCGGUCCCCAGCCCGGAUAAAAGUGGAGGGGGCGG [C8A A22C]: the self-cleavage stood at 0.45.

AACACUGACAAUGCCGGUCCCGAGCCCGGAUAAAAGUGGAGGGGGCGG [C8A A22G]: the self-cleavage came to 0.107.

Turning to AACACUUCCUAUGCCGGUCCCAAGCCCGGAUAAAAGUGGAGGGGGCGG [G7U A10U], the self-cleavage was 0.0807.

In the case of AACACUUCCGAUGCCGGUCCCAAGCCCGGAUAAAAGUGGAGGGGGCGG [G7U A10G], the self-cleavage was determined as 0.237.

Turning to AACACUUCCAAUGCCGGUCCCAAGCCCGGAUACAAGUGGAGGGGGCGG [G7U A33C], the self-cleavage came to 0.0647.

Take AACACUUCCAAUGCCGGUCCCAAGCCCGGAUAGAAGUGGAGGGGGCGG [G7U A33G]: the self-cleavage was found to be 0.0484.

Take AACACUCCCAAGGCCGGUCCCAAGCCCGGAUAAAAGUGGAGGGGGCGG [G7C U12G]: the self-cleavage stood at 0.0541.

As for AACACUCCCAAAGCCGGUCCCAAGCCCGGAUAAAAGUGGAGGGGGCGG [G7C U12A], the self-cleavage turned out to be 0.0478.

In the case of AACACUUCCAAUGCCCGUCCCAAGCCCGGAUAAAAGUGGAGGGGGCGG [G7U G16C], the self-cleavage is 0.0533.

Take AACACUUCCAAUGCCGGUCCCAAGCCCGGAUAAAAGUGGAGGGGGCAG [G7U G47A]: the self-cleavage was 0.0641.

Regarding AACACUCCCAAUGCCGGUCCCAAGCCCGGAUAAAAGUGGAGGGGGCAG [G7C G47A], the self-cleavage stood at 0.0829.

In the case of AACACUCCCAAUGCCGGUCCCAAGCCCGGAUAAAAGUGGAGGGGGCUG [G7C G47U], the self-cleavage was determined as 0.0642.

Turning to AACACUCCCAAUGCCAGUCCCAAGCCCGGAUAAAAGUGGAGGGGGCGG [G7C G16A], the self-cleavage was determined as 0.0653.

Consider AACACUCCCAAUGCCUGUCCCAAGCCCGGAUAAAAGUGGAGGGGGCGG [G7C G16U], for which the self-cleavage is 0.0598.

Regarding AACACUUCCAAUGCCGGUCCCAAGCCCGGAUAAUAGUGGAGGGGGCGG [G7U A34U], the self-cleavage was 0.0892.

For the variant AACACUUCCAAUGCCGGUCCCAAGCCCGGAUAAAAGUGGAGGGCGCGG [G7U G44C], the self-cleavage came out at 0.0951.

Take AACACUUCCAAUGCCGGUCCCAAGCCCGGAUAAAAAUGGAGGGGGCGG [G7U G36A]: the self-cleavage turned out to be 0.0763.

Consider AACACUUCCAAUGCCGGUCCCAAGCCCGGAUAAAACUGGAGGGGGCGG [G7U G36C], for which the self-cleavage worked out at 0.0408.

AACACUUCCAAUGCCGGUCCCAAGCCCGGAUAAAAUUGGAGGGGGCGG [G7U G36U]: the self-cleavage stood at 0.0615.

Turning to AACACUCCCAAUGCCGGUCCCAAGCCCCGAUAAAAGUGGAGGGGGCGG [G7C G28C], the self-cleavage was determined as 0.0717.

In the case of AACACUUCCAAUGCCGGUCCCAAACCCGGAUAAAAGUGGAGGGGGCGG [G7U G24A], the self-cleavage was found to be 0.0738.

Take AACACUUCGAAUGCCGGUCCCAAGCCCGGAUAAAAGUGGAGGGGGCGG [G7U C9G]: the self-cleavage was found to be 0.0496.

On to AACACUUCAAAUGCCGGUCCCAAGCCCGGAUAAAAGUGGAGGGGGCGG [G7U C9A], for which the self-cleavage was determined as 0.0711.

AACACUGACAAUGCCGGUCCCAAGCCCGGUUAAAAGUGGAGGGGGCGG [C8A A30U]: the self-cleavage turned out to be 0.284.

As to AACACUGACAAUGCCGGUCCCAAGCCCGGCUAAAAGUGGAGGGGGCGG [C8A A30C], the self-cleavage was found to be 0.147.

As to AACACUUCCAAUGCCGGUCCCAAGCUCGGAUAAAAGUGGAGGGGGCGG [G7U C26U], the self-cleavage is 0.0446.

In the case of AACACUGACAAUGCCGGUCCCAAGCCCGGAUAAAAGUGGGGGGGGCGG [C8A A40G], the self-cleavage is 0.17.

As to AACACUGACAAUGCCGGUCCCAAGCCCGGAUAAAAGUGGCGGGGGCGG [C8A A40C], the self-cleavage is 0.113.

As to AACACUGACAAUGCCGGUCCCAAGCCCGGAUUAAAGUGGAGGGGGCGG [C8A A32U], the self-cleavage is 0.275.

Consider AACACUUCCAAUGCCGGUCCCAAGCCCGGAUAAAAGUGGAGCGGGCGG [G7U G42C], for which the self-cleavage came out at 0.0955.

For AACACUUCCAAUGCCGGUCCCAAGCCCGGAUAAAAGUGGAGAGGGCGG [G7U G42A], the self-cleavage amounted to 0.0796.

Take AACACUGACAAUGCCGGUCCCAAGCCCGGAUACAAGUGGAGGGGGCGG [C8A A33C]: the self-cleavage amounted to 0.279.

As to AACACUCCCAAUGCCGGUCCCAAGCCCGGAUAAAAGUGGAGGAGGCGG [G7C G43A], the self-cleavage amounted to 0.0617.

Take AACACUCCCAAUGCCGGUCCCAAGCCCGGAUAAAAGUGGAGGUGGCGG [G7C G43U]: the self-cleavage came to 0.0777.

AACACUUCCAAUGCCGGUCCCAAGCCCGGAUAAAAGUGGAGGGGGCGU [G7U G48U]: the self-cleavage worked out at 0.0928.

On to AACACUUCCAAUGCCGGUCCCAAGCCCGGAUAAAAGUGGAGGGGGCGC [G7U G48C], for which the self-cleavage was 0.123.

As for AACACUCCCAAUGCCGCUCCCAAGCCCGGAUAAAAGUGGAGGGGGCGG [G7C G17C], the self-cleavage amounted to 0.0528.

For the variant AACACUCCCAAUGCCGAUCCCAAGCCCGGAUAAAAGUGGAGGGGGCGG [G7C G17A], the self-cleavage was 0.0642.
